# Experimental data published in patent US6084068, “Elongin A and C functional domains” (Oklahoma Medical Research Foundation, dated 2000).
# Residue numbers refer to the chain shown, from its start. Numbers in names are those of the source.
# T1: Elongin BC complex (wild type rat Elongin B and C) (rat, UniProt P62870)
# T1 chain 1: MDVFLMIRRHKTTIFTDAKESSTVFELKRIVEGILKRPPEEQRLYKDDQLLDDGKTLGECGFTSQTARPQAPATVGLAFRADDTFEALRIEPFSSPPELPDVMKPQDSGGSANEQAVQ
# T1 chain 2: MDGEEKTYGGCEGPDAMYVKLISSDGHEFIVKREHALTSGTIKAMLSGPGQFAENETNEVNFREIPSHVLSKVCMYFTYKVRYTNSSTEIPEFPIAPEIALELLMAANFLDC
# B1: Elongin A internal deletion mutant Δ561-564 (other)
# chain: MAAESALQVVEKLQARLAANPDPKKLLKYLKKLSVLPITVDILVETGVGKTVNSFRKHEQVGNFARDLVAQWKKLVPVERNNEAEDQDFEKSNSRKRPRDVPQQEEEAEGNYQESWQASGSQPYSPEHRQKKHRKLPELERPHKVAHGHERRDERKRCHKVSPPYSSDPESSDYGHVQSPPPSSPHQMYTDLSRSPEMDQEPIVSHPKPGKVHSNTFQDRLGVSHLGEHQGKGAVSQNKPHKSSHKEKRPVDARGDEKSSVMGREKSHKASSKEESRRLLSEDSAKEKLPSSVVKKEKDREGNSLKKKLSPALDVASDNHFKKPKHKDSEKIKSDKNKQSVDSVDSGRGTGDPLPRAKDKVPNNLKAQEGKVRTNSDRKSPGSLPKVEEMDMDDEFEQPTMSFESYLSYDQPRKKKKKVVKTSGTALGEKGLKKKDSKSTSKNLNSAQKLPKANENKSDKLQPAGAEPTRPRKVPTDVLPALPDIPLPAIQTNYRPLPSLELISSFQPKRKAFSSPQEEEEAGFTGRRMNSKMQVYSGSKCAYLPKMMTLHQQCIRVLKNIFEVGGVPYSVLEPVLERCTPDQLYRIEECNHVLIEETDQLWKVHCHRDFKEERPEEYESWREMYLRLQDAREQRLRLLTNNIRSAHANKPKGRQAKMAFVNSVAKPPRDVRRRQEKFGTGGAAVPEKVRIKPAPYTTGSSHVPASNSSSSFHSSPEELAYEGPSTSSAHLAPVASSSVSYDPRKPAVKKIAPMMAKTIKAFKNRFSRR
# B2: Elongin A internal deletion mutant Δ565-568 (other)
# chain: B1 chain with I561N, F562I, E563D, V564S
# B3: Elongin A deletion mutant 1-630 (other)
# chain: MAAESALQVVEKLQARLAANPDPKKLLKYLKKLSVLPITVDILVETGVGKTVNSFRKHEQVGNFARDLVAQWKKLVPVERNNEAEDQDFEKSNSRKRPRDVPQQEEEAEGNYQESWQASGSQPYSPEHRQKKHRKLPELERPHKVAHGHERRDERKRCHKVSPPYSSDPESSDYGHVQSPPPSSPHQMYTDLSRSPEMDQEPIVSHPKPGKVHSNTFQDRLGVSHLGEHQGKGAVSQNKPHKSSHKEKRPVDARGDEKSSVMGREKSHKASSKEESRRLLSEDSAKEKLPSSVVKKEKDREGNSLKKKLSPALDVASDNHFKKPKHKDSEKIKSDKNKQSVDSVDSGRGTGDPLPRAKDKVPNNLKAQEGKVRTNSDRKSPGSLPKVEEMDMDDEFEQPTMSFESYLSYDQPRKKKKKVVKTSGTALGEKGLKKKDSKSTSKNLNSAQKLPKANENKSDKLQPAGAEPTRPRKVPTDVLPALPDIPLPAIQTNYRPLPSLELISSFQPKRKAFSSPQEEEEAGFTGRRMNSKMQVYSGSKCAYLPKMMTLHQQCIRVLKNNIDSIFEVGGVPYSVLEPVLERCTPDQLYRIEECNHVLIEETDQLWKVHCHRDFKEERPEEYESWREMYL
# B4: Elongin A point mutant T549I (other)
# chain: MAAESALQVVEKLQARLAANPDPKKLLKYLKKLSVLPITVDILVETGVGKTVNSFRKHEQVGNFARDLVAQWKKLVPVERNNEAEDQDFEKSNSRKRPRDVPQQEEEAEGNYQESWQASGSQPYSPEHRQKKHRKLPELERPHKVAHGHERRDERKRCHKVSPPYSSDPESSDYGHVQSPPPSSPHQMYTDLSRSPEMDQEPIVSHPKPGKVHSNTFQDRLGVSHLGEHQGKGAVSQNKPHKSSHKEKRPVDARGDEKSSVMGREKSHKASSKEESRRLLSEDSAKEKLPSSVVKKEKDREGNSLKKKLSPALDVASDNHFKKPKHKDSEKIKSDKNKQSVDSVDSGRGTGDPLPRAKDKVPNNLKAQEGKVRTNSDRKSPGSLPKVEEMDMDDEFEQPTMSFESYLSYDQPRKKKKKVVKTSGTALGEKGLKKKDSKSTSKNLNSAQKLPKANENKSDKLQPAGAEPTRPRKVPTDVLPALPDIPLPAIQTNYRPLPSLELISSFQPKRKAFSSPQEEEEAGFTGRRMNSKMQVYSGSKCAYLPKMMILHQQCIRVLKNNIDSIFEVGGVPYSVLEPVLERCTPDQLYRIEECNHVLIEETDQLWKVHCHRDFKEERPEEYESWREMYLRLQDAREQRLRLLTNNIRSAHANKPKGRQAKMAFVNSVAKPPRDVRRRQEKFGTGGAAVPEKVRIKPAPYTTGSSHVPASNSSSSFHSSPEELAYEGPSTSSAHLAPVASSSVSYDPRKPAVKKIAPMMAKTIKAFKNRFSRR
# B5: Elongin A point mutant C554F (other)
# chain: B4 chain with I549T, C554F
# B6: Elongin A point mutant V557E (other)
# chain: B4 chain with I549T, V557E
# B7: Elongin A deletion mutant 400-773 (other)
# chain: TMSFESYLSYDQPRKKKKKVVKTSGTALGEKGLKKKDSKSTSKNLNSAQKLPKANENKSDKLQPAGAEPTRPRKVPTDVLPALPDIPLPAIQTNYRPLPSLELISSFQPKRKAFSSPQEEEEAGFTGRRMNSKMQVYSGSKCAYLPKMMTLHQQCIRVLKNNIDSIFEVGGVPYSVLEPVLERCTPDQLYRIEECNHVLIEETDQLWKVHCHRDFKEERPEEYESWREMYLRLQDAREQRLRLLTNNIRSAHANKPKGRQAKMAFVNSVAKPPRDVRRRQEKFGTGGAAVPEKVRIKPAPYTTGSSHVPASNSSSSFHSSPEELAYEGPSTSSAHLAPVASSSVSYDPRKPAVKKIAPMMAKTIKAFKNRFSRR
# B8: Elongin A internal deletion mutant Δ401-440 (other)
# chain: MAAESALQVVEKLQARLAANPDPKKLLKYLKKLSVLPITVDILVETGVGKTVNSFRKHEQVGNFARDLVAQWKKLVPVERNNEAEDQDFEKSNSRKRPRDVPQQEEEAEGNYQESWQASGSQPYSPEHRQKKHRKLPELERPHKVAHGHERRDERKRCHKVSPPYSSDPESSDYGHVQSPPPSSPHQMYTDLSRSPEMDQEPIVSHPKPGKVHSNTFQDRLGVSHLGEHQGKGAVSQNKPHKSSHKEKRPVDARGDEKSSVMGREKSHKASSKEESRRLLSEDSAKEKLPSSVVKKEKDREGNSLKKKLSPALDVASDNHFKKPKHKDSEKIKSDKNKQSVDSVDSGRGTGDPLPRAKDKVPNNLKAQEGKVRTNSDRKSPGSLPKVEEMDMDDEFEQPTSKNLNSAQKLPKANENKSDKLQPAGAEPTRPRKVPTDVLPALPDIPLPAIQTNYRPLPSLELISSFQPKRKAFSSPQEEEEAGFTGRRMNSKMQVYSGSKCAYLPKMMTLHQQCIRVLKNNIDSIFEVGGVPYSVLEPVLERCTPDQLYRIEECNHVLIEETDQLWKVHCHRDFKEERPEEYESWREMYLRLQDAREQRLRLLTNNIRSAHANKPKGRQAKMAFVNSVAKPPRDVRRRQEKFGTGGAAVPEKVRIKPAPYTTGSSHVPASNSSSSFHSSPEELAYEGPSTSSAHLAPVASSSVSYDPRKPAVKKIAPMMAKTIKAFKNRFSRR
# B9: Elongin A deletion mutant 1-680 (other)
# chain: MAAESALQVVEKLQARLAANPDPKKLLKYLKKLSVLPITVDILVETGVGKTVNSFRKHEQVGNFARDLVAQWKKLVPVERNNEAEDQDFEKSNSRKRPRDVPQQEEEAEGNYQESWQASGSQPYSPEHRQKKHRKLPELERPHKVAHGHERRDERKRCHKVSPPYSSDPESSDYGHVQSPPPSSPHQMYTDLSRSPEMDQEPIVSHPKPGKVHSNTFQDRLGVSHLGEHQGKGAVSQNKPHKSSHKEKRPVDARGDEKSSVMGREKSHKASSKEESRRLLSEDSAKEKLPSSVVKKEKDREGNSLKKKLSPALDVASDNHFKKPKHKDSEKIKSDKNKQSVDSVDSGRGTGDPLPRAKDKVPNNLKAQEGKVRTNSDRKSPGSLPKVEEMDMDDEFEQPTMSFESYLSYDQPRKKKKKVVKTSGTALGEKGLKKKDSKSTSKNLNSAQKLPKANENKSDKLQPAGAEPTRPRKVPTDVLPALPDIPLPAIQTNYRPLPSLELISSFQPKRKAFSSPQEEEEAGFTGRRMNSKMQVYSGSKCAYLPKMMTLHQQCIRVLKNNIDSIFEVGGVPYSVLEPVLERCTPDQLYRIEECNHVLIEETDQLWKVHCHRDFKEERPEEYESWREMYLRLQDAREQRLRLLTNNIRSAHANKPKGRQAKMAFVNSVAKPPRDVRRRQE
# B10: Elongin A deletion mutant 1-730 (other)
# chain: MAAESALQVVEKLQARLAANPDPKKLLKYLKKLSVLPITVDILVETGVGKTVNSFRKHEQVGNFARDLVAQWKKLVPVERNNEAEDQDFEKSNSRKRPRDVPQQEEEAEGNYQESWQASGSQPYSPEHRQKKHRKLPELERPHKVAHGHERRDERKRCHKVSPPYSSDPESSDYGHVQSPPPSSPHQMYTDLSRSPEMDQEPIVSHPKPGKVHSNTFQDRLGVSHLGEHQGKGAVSQNKPHKSSHKEKRPVDARGDEKSSVMGREKSHKASSKEESRRLLSEDSAKEKLPSSVVKKEKDREGNSLKKKLSPALDVASDNHFKKPKHKDSEKIKSDKNKQSVDSVDSGRGTGDPLPRAKDKVPNNLKAQEGKVRTNSDRKSPGSLPKVEEMDMDDEFEQPTMSFESYLSYDQPRKKKKKVVKTSGTALGEKGLKKKDSKSTSKNLNSAQKLPKANENKSDKLQPAGAEPTRPRKVPTDVLPALPDIPLPAIQTNYRPLPSLELISSFQPKRKAFSSPQEEEEAGFTGRRMNSKMQVYSGSKCAYLPKMMTLHQQCIRVLKNNIDSIFEVGGVPYSVLEPVLERCTPDQLYRIEECNHVLIEETDQLWKVHCHRDFKEERPEEYESWREMYLRLQDAREQRLRLLTNNIRSAHANKPKGRQAKMAFVNSVAKPPRDVRRRQEKFGTGGAAVPEKVRIKPAPYTTGSSHVPASNSSSSFHSSPEELAYEGPST
# Biological target: T1, Elongin BC complex (wild type rat …)
# Experiment: refolded with wild type Elongin B and C; TSK SP-NPR HPLC, SDS-PAGE, silver staining
row,binding result,Binder
1,binds,B1
2,binds,B2
3,binds,B3
4,binds,B4
5,binds,B5
6,binds,B6
7,binds,B7
8,binds,B8
9,binds,B9
10,binds,B10
